Assay results published in US20240254209A1 (published 2024).
Residue numbers refer to the chain shown, from its start.

B1: human IgE mAb 40C7 (antibody, V domains shown)
VH: EVQLVESGGDLVQPGGSLRLSCAASRFSFGSYAMSWVRQAPGKGLEWVSAISSSGGRAYYADSVKGRFTISRDNSRNTLYLQLNSLRGEDTAFYYCTKEGDTGSLWLFDSWGQGTLVTVSS
VL: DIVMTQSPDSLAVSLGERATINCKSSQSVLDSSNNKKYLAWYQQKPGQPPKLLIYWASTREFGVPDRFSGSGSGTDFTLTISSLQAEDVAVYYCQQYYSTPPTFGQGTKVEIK
notes: human IgE from hybridoma
B2: human IgE mAb 4G4 (antibody, V domains shown)
VH: B1 VH with E6Q, D10G, S28I, A58T, N84S, G88A
VL: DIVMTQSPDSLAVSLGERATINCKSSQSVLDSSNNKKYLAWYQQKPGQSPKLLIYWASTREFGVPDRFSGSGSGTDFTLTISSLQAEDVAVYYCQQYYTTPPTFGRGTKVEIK
notes: human IgE from hybridoma
B3: human IgE mAb 7B6 (antibody, V domains shown)
VH: QVQLQQWGAGLLKPSETLSLTCAVYGGSFNGYYWSWIRQPPGKGLEWIGEIDHSGSTNYNSSLKSRVTISVDTSKNQFSLKLSSVTAADTAVYYCARRRIGSLLKYFQDWGQGTLVTVSS
VL: SYELTQPPSVSVSPGQTASITCSGDKLGDSYVCWYQLKPGQSPVLVIYQDTKRPSGIPERFSGSNSGNTATLTISETQAMDEADYYCQAWDTTTDWVFGGGTKLTVL
notes: human IgE from hybridoma
B4: human IgE mAb 20G11 (antibody, V domains shown)
VH: QVQLVESGGGVVQPGGSLRLSCATSGFTFSSYGMHWVRQAPGKGLEWVAFIRYNGSNKYYADSVKGRFTISRDTSKNTLYLQMNSLRAEDSAVYYCAKDGDYDSWSGLTEHFQHWGQGTLVTVSS
VL: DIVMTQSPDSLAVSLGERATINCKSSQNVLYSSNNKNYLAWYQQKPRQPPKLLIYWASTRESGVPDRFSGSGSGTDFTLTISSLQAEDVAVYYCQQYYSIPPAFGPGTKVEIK
notes: human IgE from hybridoma
B5: human IgE mAb 1A8 (antibody, V domains shown)
VH: QLQLQESGPGLVKPSETLSLTCSVSDDSISTPSYFWTWIRQPPGKGLEWIASIYYTGTTYYNPSLKSRVTLSVDTPKRQFFLRLSSVTAADTAVYYCARYLDYVWLRAFDVWGQGAMVTVSS
VL: EIVLTQSPATLSLSPGERATLSCRASPSVGRFLAWYQQKPGQAPRLLIYDASQRATDIPARFSASGSGTDFTLTIDSLEPEDFAIYYCQHRSNWPVTFGGGTRVEIK
notes: human IgE from hybridoma
B6: human IgE mAb 21C10 (antibody, V domains shown)
VH: EVQLVESGGGLVKPGGSLRLSCAASGFILSRSSMSWVRQAPGKGLEWVSYISSTSSHIYYADSLKGRFTISRDNTENSVYLQMSSLRAEDTGVYYCARKTNGAWFLDLWGRGTLVTVSS
VL: QSVLTQPPSVSGAPGQRVTISCTGSSSNIGAGSDVHWYQQFPGSAPHVLIYGNNQRPSGVPDRFSASKSGTSASLAITGLQADDEADYYCQSYDYDLSGSWVFGGGTKLTVL
notes: human IgE from hybridoma
B7: human IgE mAb 9A11 (antibody, V domains shown)
VH: EVQLVESGGGLVRPGGSLRLSCVASGFTFNTYWMHWVRQAPGKGLLWVSSLNKDGSSPTYADSVKGRFTISRDNTNNTLFLQLDSLRAEDTAVYYCVRDRRAVTTARYFDLWGRGTLVTVSS
VL: DIVMTQSPESLAVSLGERATINCKSSSNIDNYLGWYQQRPGQPPKLLIYWASKRESGVPDRFSGSGSGTDFTLTIGRLQAEDVAVYYCQQYYTSPPVTFGGGTKVEIK
notes: human IgE from hybridoma
B8: human IgE mAb 15C2 (antibody, V domains shown)
VH: QVQLVQSESELKKPGASVKISCKASGYDLTKYAMNWVRQAPGQGLEWMGWINTNTAKPTYAQGFTGRFVFSLDTSVRTIYLEISNLKAEDTAIYYCSRDGSGASWGQGTLVTVSS
VL: DIQMTQSPSTLSASVGDRVTITCRASQNIGRWLAWHQQKPGKAPKVLITKASNLESGVPSRFTGSGSGTDFTLTITSLQPDDFATYYCQQYTTYSGTFGQGTRVEIK
notes: human IgE from hybridoma
B9: human IgE mAb 26A5 (antibody, V domains shown)
VH: QVQLVQSGSELRKPGASVKVSCKASGYTFTKYGMNWVRQAPGQGLEWMGWINTNTAKPTYAQDFTGRFVFSLDTSVNTAYLEISGLKAEDTAVYYCATDGSEGSWGQGTLVTVSS
VL: B8 VL with N28S, R31T, K42T, T49Y, E55K, T63S, T76S, F83V, T92N
notes: human IgE from hybridoma
B10: human IgE mAb 3B7 (antibody, V domains shown)
VH: QVQLVQSGSELKKPGASMKVSCKASGYTFTNYAMNWVRQAPGQGLEWMGWINTNTGKPTYAQGFTGRFVFSLDTSVSMAYLQISSLEAGDTAVYFCARGESLAALGSFAYWGQGTLVTVSS
VL: DIQMTQSPSSLSASVGDRVTITCRASQSINSYLAWYQQKPGKAPNLLIYAASNLQSGVPSRFSGSGSGTDFTLTISSLQPEDFATYYCQQSSSTFWTFGQGTKVEIK
notes: human IgE from hybridoma
B11: human IgE mAb 20M10 (antibody, V domains shown)
VH: EVQLVESGGGLVKPGGSLRLSCTVSGFTFNMHSMNWVRQAPGKGLEWVSFISSTSTYIYYPDSVKGRFTVSRDNSKNSLYLQMTSLRAEDTAVYYCVRRGRGGAARALDNWGQGTLVTVSS
VL: SYVLPQTPSLSVAPGQTATISCGGNNTGSKSVHWYQQKPGQAPLLVVYDNSDRPSGIPERFSGSNSGNTATLTLSRVEAEDEADYYCQVWDSTIDHVIFGGGTKLTVL
notes: human IgE from hybridoma
B12: human IgE mAb 15A7 (antibody, V domains shown)
VH: QVQLVQSGPEVRKPGASVKVSCKTSGYMFTDYEMNWVRQAPGQGLEWMGLINPHSGDTGYAQKFQGRVSMTSDTSTRTFYLELTGLTSEDTAVYYCARSQGTFEVYYFVSWGQGSLVTVSS
VL: SYVLTQPPSVSVAPGKTASITCGAKNIATKRVHWYRQKPGQAPVVVVSDEEDRSSVIPERFSGSKSGDTATLEISRVEAGDEADYYCQVWDSLADQVVFGGGTKVTVL
notes: human IgE from hybridoma
B13: human IgE mAb 3C3 (antibody, V domains shown)
VH: QLQLQESGPGLVKPSETLSLTCSISGASINSDDYYWGWIRQAPGEALEWIASIDASGTTFYNPSLRSRVTISVDTSTNQISLRLNSVTAADTAIYYCARRKTYYDFLTDYYNWYFDVWGRGTLVTVSS
VL: QSALTQPRSVSGSPGQSVTFSCTGINSDIRDYDYVSWYQQHPGEAPKLIIYDVTKRASGVPSRFSGSKSGNTASLTISGLQAEDEADYYCCSYSVTYSFEVFGTGTQVSVL
notes: human IgE from hybridoma
B14: human IgE mAb 3B10 (antibody, V domains shown)
VH: EVQLVESGGALVKPGGSLRLSCEGSGFMFSSAWLHWVRQAPGMGLELVGRMKSETDGGTLDYTAPVRGRFTISRDDSKNMFFLQMNSLKAEDTAVYYCVTGNFDYRSSPLGFWGQGALVTVSS
VL: DIQMTQSPSTLSASAGDRVTITCRASENIYKWLAWYQQKPGKAPKLLIYKVSTLESGVPSRFSGSGFGTEFTLTISSLQPGDFATYYCQHYNSFPFTFGQGTKLEVK
notes: human IgE from hybridoma
B15: human IgE mAb 11F10 (antibody, V domains shown)
VH: EVQLVESGGGLVQPGRSLRLSCAASGFTFDDYTMHWVRQAPGKGLEWVSSIRWNSGNLDYADSVKGRFTISRDNARHSLYLQMNSLRAEDTALYYCVKDNGLRTLDFWGQGTLVTVSS
VL: DIVMTQSPLSLPVTPGEPASISCRSSQSLLHRNGYNYLDWYLQKPGQSPQLLISLASNRASGVPDRFSGSGSGTDFTLKISRVEAEDVGVYYCMQALQTWTFGQGTKVELK
notes: human IgE from hybridoma

Assays:
[1] = target: T1, peanut allergen Ara h 1 (peanut (Arachis hypogaea), UniProt P43238 26-626); assay: allergen specificity as listed in Table D
T1 construct: also called F422
T1 sequence (looked up): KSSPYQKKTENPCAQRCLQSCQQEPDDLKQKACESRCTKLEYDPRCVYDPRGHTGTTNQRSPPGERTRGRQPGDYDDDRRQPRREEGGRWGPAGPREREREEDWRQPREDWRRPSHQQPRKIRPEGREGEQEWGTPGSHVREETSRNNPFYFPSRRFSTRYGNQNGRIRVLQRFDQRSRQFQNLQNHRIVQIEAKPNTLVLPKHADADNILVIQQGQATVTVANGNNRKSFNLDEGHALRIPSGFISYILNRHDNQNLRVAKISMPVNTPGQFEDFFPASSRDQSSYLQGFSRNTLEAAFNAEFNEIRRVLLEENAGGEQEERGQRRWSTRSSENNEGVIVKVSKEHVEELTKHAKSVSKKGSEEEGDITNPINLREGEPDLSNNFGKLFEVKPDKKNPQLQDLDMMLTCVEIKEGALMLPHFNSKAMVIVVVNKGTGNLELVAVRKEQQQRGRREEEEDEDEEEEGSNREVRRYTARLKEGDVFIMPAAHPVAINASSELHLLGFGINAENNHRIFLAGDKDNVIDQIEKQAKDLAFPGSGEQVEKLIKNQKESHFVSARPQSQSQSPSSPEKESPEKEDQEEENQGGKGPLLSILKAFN

[2] = target: T2, peanut allergen Ara h 3 (peanut (Arachis hypogaea)); assay: ImmunoCAP, hybridoma supernatant
T2 construct: also called F424
Method: (§1) Verification and validation of IgE mAbs peanut allergen specificity. Following the unbiased generation of IgE secreting human hybridomas from peanut allergic subject PBMCs, peanut protein binding and peanut allergen protein specificity was determined. Hybridoma culture supernatant was initially used for this validation. […] Using the available ImmunoCAP components (purified allergen proteins: Ara h 1, F422; Ara h 2, F423; Ara h 3, F424; Ara h 8 F352; Ara h 9 F427), the exact allergen specificity was determined for those which bound Ara h 1, 2, and 3.
(§2) Hybridoma cell culture supernatant was used for initial identification of allergen specificity using ImmunoCAP analysis. Peanut reactivity was first determined using peanut ImmunoCAP. Component analysis identified IgE antibodies specific for Ara h 1, 2, and 3. All antibodies not identified in this table were determined to bind Ara h 6.

[3] = target: T3, peanut allergen Ara h 9 (peanut (Arachis hypogaea)); assay: ImmunoCAP, hybridoma supernatant
T3 construct: ImmunoCAP component F427; also called F427
Method: as §1, §2

[4] = target: T4, peanut allergen Ara h 8 (peanut (Arachis hypogaea)); assay: ImmunoCAP, hybridoma supernatant
T4 construct: ImmunoCAP component F352; also called F352
Method: as §1, §2

[5] = target: T5, peanut allergen Ara h 6 (peanut (Arachis hypogaea), UniProt Q647G9 22-145); assay: told in the text
T5 construct: also called recombinant Ara h 6
T5 sequence (looked up): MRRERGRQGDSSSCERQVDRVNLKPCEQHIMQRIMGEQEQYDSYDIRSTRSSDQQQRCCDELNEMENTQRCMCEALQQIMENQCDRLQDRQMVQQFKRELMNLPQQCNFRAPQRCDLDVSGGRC

[6] = target: T5, peanut allergen Ara h 6; assay: Phadia ImmunoCAP and/or ELISA and Western blot

Binder	ImmunoCAP kUA/L [2]	ImmunoCAP kUA/L [3]	ImmunoCAP kUA/L [4]	binding result [6]	also measured
B1	–	–	–	–	binding result [1]: binds
B2	0.48 kUA/L	0.19 kUA/L	0.34 kUA/L	–	–
B3	0.32 kUA/L	0.21 kUA/L	0.29 kUA/L	–	–
B4	–	–	–	–	binding result [5]: binds
B5	–	–	–	binds	–
B6	0.83 kUA/L	0.32 kUA/L	0.53 kUA/L	binds	–
B7	–	–	–	binds	–
B8	–	–	–	binds	–
B9	0.25 kUA/L	0.14 kUA/L	0.15 kUA/L	–	–
B10	1.15 kUA/L	0.25 kUA/L	0.42 kUA/L	–	–
B11	–	–	–	binds	–
B12	0.14 kUA/L	–	–	–	–
B13	3460 kUA/L	0.46 kUA/L	0.51 kUA/L	–	–
B14	–	–	–	–	binding result [1]: binds
B15	–	–	–	–	binding result [5]: binds
